Positions count from the first letter of the chain named.
B1: KD4-2H4 (rabbit version) (antibody, V domains shown)
VH: EVQLVESGGGLVQPGGSLRLSCAASGFTFSSYWMYWVRQAPGKGLVWVSRINSDGSTTNYADSVKGRFTISRDNAKNTLYLQMNSLRAEDTAVYFCARYAHLGIGWYFDLWGRGTLVTVSS
VL: QSALTQPRSVSGSPGQSVTISCTGTSSDVGGYNYVSWYQQHPGKAPKLMIYDVSKRPSGVPDRFSGSKSGNTASLTISGLQAEDEADYYCCSYAGSYTLLFGGGTKLTVL
notes: also called Rabbit KD4-2H4
B2: KD9-1B5 (antibody, V domains shown)
VH: QVQLQESGPGLVKPSETLSLTCTVSGGSINSYYWSWIRQPPGKGLEWIGYIYYSGSTNYNPSLKSRVTISVDTSKNQFSLRLSSVTAADTAVYYCARHPTAGTSYGMDVWGQGTTVTV
VL: QSALTQPASESGSPGQSITISCTGTTSDVGSYNLVSWYQQHPGKAPKLMIYEGTKRPSGVSNRFSGSKSGNTASLTISGLQPEDEADYYCCSYAGTTTYVFGTGTKVTVL
B3: KD4-2H4 (human version) (antibody, V domains shown)
VH: B1 VH
VL: B1 VL
notes: also called human KD4-2H4
B4: KD6-2B2 (antibody, V domains shown)
VH: EVQLVESGGGVAQPGTSLRLSCEASGFTFRDYAMRWVRQAPGKGLEWVAFIWNDGSKKYYTDSVRGRFTISRDNSKNMLYLQMDSLRAEDTALYYCARKMSEDDAFDLWGQGTMVTV
VL: DIQMTQSPSTLSASAGDRVTITCRASQSVSKYLAWYQQKPGKAPRLLIYKASSLQSGVPSRFSGSGSGTEFTLTISSLQPDDFATYYCQHYNTYPSWTFGQGTKVEIK
notes: also called rabbit KD6-2B2; KD36-2B32
B5: KD6-1A10 (antibody, V domains shown)
VH: VQLVESGGGVVQPGRSLRLSCAASGFSFSNYFMHWVRHVPGKGLEWLATIWYDGSDKYYVDSVKGRFTISRDNSKNTLYLQMGSLRAEDTAMYYCAKGRQRGYYYDMGGYYVFDSWGQGTLVTVSS
VL: QSVLTQPPSASGTPGQGVTISCSGSRSNIGSNTVNWYRQFPGTAPKLLIYKNNQRPSGVPDRFSGSKPGTSAYLAITGLQSDDQADYYCAAWDDSLKGVVFGGGTKLTVL
B6: KD8-1B10 (antibody, V domains shown)
VH: EVQLVESGGGLVQPGGSLRLSCAASGFTFSDHYMDWVRQVPRKGLEWVGRARNKANSYTTEYAASVKGRFTISRDDSKNSLYLQMNSLKSEDTAVYYCARFLLIADAFDIWGQGTMVTV
VL: DIQMTQSPSSLSASLGDRVTITCRASQGIRHDLGWYQQKPGKAPKLLIYGASTLQTGVPSRFSGSGSGTDFTLTISSLQPEDFATYYCLQKYNYPLTFGGGTKVEIK
B7: KD8-1D4 (antibody, V domains shown)
VH: B6 VH with H32Y, V40A, R42G, A51T, S90T, I104V
VL: B6 VL with L15V, H31N, T53S, T56S, F83I, K91E, N93T

Tests used:
[1] = target: T1, bovine serum albumin (Fraction V, Fisher BP1600) (bovine, UniProt P02769 25-607); experiment: polyreactivity ELISA
T1 construct: also called BSA
T1 sequence (P02769 25-607 limits assumed): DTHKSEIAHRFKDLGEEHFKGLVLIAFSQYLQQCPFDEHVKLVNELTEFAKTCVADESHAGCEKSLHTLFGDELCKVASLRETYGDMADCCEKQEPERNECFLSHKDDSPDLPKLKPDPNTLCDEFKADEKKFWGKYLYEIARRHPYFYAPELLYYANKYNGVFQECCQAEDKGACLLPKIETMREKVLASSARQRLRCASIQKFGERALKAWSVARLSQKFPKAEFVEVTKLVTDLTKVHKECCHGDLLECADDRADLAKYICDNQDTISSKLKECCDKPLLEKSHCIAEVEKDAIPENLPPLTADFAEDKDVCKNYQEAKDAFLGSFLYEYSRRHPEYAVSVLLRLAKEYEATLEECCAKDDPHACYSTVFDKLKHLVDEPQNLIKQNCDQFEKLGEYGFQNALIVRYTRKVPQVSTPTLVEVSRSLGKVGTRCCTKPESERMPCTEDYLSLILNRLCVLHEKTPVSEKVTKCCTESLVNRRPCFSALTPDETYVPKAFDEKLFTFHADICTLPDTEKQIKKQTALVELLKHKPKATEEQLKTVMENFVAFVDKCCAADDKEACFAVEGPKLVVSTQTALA

[2] = target: multiple related peptides of hepacivirus C NS4A (animal virus peptide array); experiment: animal virus peptide array, 2.5 ug/ml
[3] = target: KD peptide (NS4A peptide 2), BSA conjugated; experiment: ELISA
[4] = target: integral membrane protein 2B (ITM2B) (human, UniProt Q9Y287 1-266); experiment: HuProt v4.0 human proteome array, 1 ug/ml
Chain of integral membrane protein 2B (ITM2B) (Q9Y287 whole entry): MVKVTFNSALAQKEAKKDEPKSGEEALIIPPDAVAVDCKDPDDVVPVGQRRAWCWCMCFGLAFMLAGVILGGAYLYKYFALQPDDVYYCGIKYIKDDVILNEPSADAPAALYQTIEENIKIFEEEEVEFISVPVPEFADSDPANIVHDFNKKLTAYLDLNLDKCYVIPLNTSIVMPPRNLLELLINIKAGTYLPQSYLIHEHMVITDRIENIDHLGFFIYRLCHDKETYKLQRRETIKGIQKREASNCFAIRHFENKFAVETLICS

Binder | binding result [1] | further results
B1 | no binding (tested: 10, 1, and 0.1 ug/ml) | spot intensity (fluorescence units) (fluorescence units) [2]: > 200
B2 | – | OD450 (KD peptide minus scrambled peptide) [3]: < 0.04 OD
B3 | – | binding result [4]: binds
B4 | no binding (tested: 10, 1, and 0.1 ug/ml) | –
B5 | no binding (tested: 10, 1, and 0.1 ug/ml) | –
B6 | no binding (tested: 10, 1, and 0.1 ug/ml) | –
B7 | no binding (tested: 10, 1, and 0.1 ug/ml) | –
